Measurements as given in patent publication CN116715769A (dated 2023).

Legend:
[1] = target: T1, human HVEM (human, UniProt Q92956); experiment: SPR
T1 chain: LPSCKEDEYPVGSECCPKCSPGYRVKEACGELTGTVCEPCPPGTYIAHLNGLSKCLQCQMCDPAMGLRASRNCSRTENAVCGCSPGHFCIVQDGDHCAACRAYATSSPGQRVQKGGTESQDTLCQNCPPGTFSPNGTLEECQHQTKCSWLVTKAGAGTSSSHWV

[2] = target: T2, mouse HVEM (mouse, UniProt Q80WM9); experiment: ELISA
T2 chain: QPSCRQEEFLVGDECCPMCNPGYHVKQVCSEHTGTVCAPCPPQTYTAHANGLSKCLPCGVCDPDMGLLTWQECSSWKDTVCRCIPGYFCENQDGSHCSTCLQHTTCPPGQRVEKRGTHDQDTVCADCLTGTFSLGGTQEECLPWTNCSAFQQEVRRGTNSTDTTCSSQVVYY

B1: 52B7 (protein)
chain 1: QVQLKQSGPGLVQPSQSLSITCTVSGFSLTIYGVHWIRQSPGKGLEWLGVIWTGGNTDYNAAFMSRLSITKDNSKSQVFF
chain 2: EIVLTQSPALMAASPGEKVTITCSVSSNISSGNLHWYQQKSETSPKPWIYGTSNLASGVPVRFSGSRSGTSYSLTISSME
With B1 the Kd [1] was 0.705 pM and the binding result [2] was “no binding”.

B2: 26C3 (protein)
chain 1: QVQLQQPGSELVRPGASVKLSCKASGYTFTSYWMHWVKQRPGQGLEWIGDIYPGSDGTNYDEKFKSKATLTVDTSSSTAY
chain 2: DIQMTQTTSSLSASLGDRVTISCRASQDISNSLNWYQQKPDGTVKLLIYYTSRLHSGVPSRFSGSGSGTDYSLTISNLE
B2: no binding [2].

B3: 22G5 (protein)
chain 1: EVQLQESGGGLVQPGGSRKLSCAASGFTFSSFGMHWVRQAPEKGLEWVAFISSGSSSIYYADTVKGRFTISRDNPRNTL
chain 2: DVVMTQTPLSLPVSLGDQASISCRSSQSLVHSNGNTYFHWYLQKPGQSPKLLIYKVSNRFSGVPDRFSGSGSGTDFTLKI
B3: no binding [2].
